# Data: PMC12416549 (2024)
# Positions count from the first letter of the chain named. Names and notes keep the numbering of the source.
# T1: TNFR1 (Homo sapiens, UniProt P19438)
# T1 chain: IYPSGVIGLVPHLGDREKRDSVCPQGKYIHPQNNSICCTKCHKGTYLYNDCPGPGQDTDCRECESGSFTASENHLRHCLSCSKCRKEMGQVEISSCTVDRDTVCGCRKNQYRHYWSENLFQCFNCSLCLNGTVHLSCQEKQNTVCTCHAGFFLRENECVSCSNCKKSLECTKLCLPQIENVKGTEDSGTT
# B1: V104A (designed binder)
# chain: MTLQELLREEALRRAEAEAFRYALELLAEKFPEQKEYLLDLAEEIESQIRSLSGVDVEDVRKFLDKEWAWVKELLAEHPAELAEVEAARAARLAELRAEVEAKAAA
# B2: E86N (designed binder)
# chain: B1 chain with E86N, A104V
# B3: V55A (designed binder)
# chain: B1 chain with V55A, A104V
# B4: A83Y (designed binder)
# chain: B1 chain with A83Y, A104V
# B5: L82N (designed binder)
# chain: B1 chain with L82N, A104V
# B6: I45G (designed binder)
# chain: B1 chain with I45G, A104V
# B7: E18T (designed binder)
# chain: B1 chain with E18T, A104V
# B8: E58I (designed binder)
# chain: B1 chain with E58I, A104V
# B9: E46Q (designed binder)
# chain: B1 chain with E46Q, A104V
# B10: A69R (designed binder)
# chain: B1 chain with A69R, A104V
# B11: E84L (designed binder)
# chain: B1 chain with E84L, A104V
# B12: V100E (designed binder)
# chain: B1 chain with V100E, A104V
# B13: A19V (designed binder)
# chain: B1 chain with A19V, A104V
# B14: I49D (designed binder)
# chain: B1 chain with I49D, A104V
# B15: R89M (designed binder)
# chain: B1 chain with R89M, A104V
# B16: A88F (designed binder)
# chain: B1 chain with A88F, A104V
# B17: R13G (designed binder)
# chain: B1 chain with R13G, A104V
# B18: Y22K (designed binder)
# chain: B1 chain with Y22K, A104V
# B19: R89Y (designed binder)
# chain: B1 chain with R89Y, A104V
# B20: E44I (designed binder)
# chain: B1 chain with E44I, A104V
# B21: T2W (designed binder)
# chain: B1 chain with T2W, A104V
# B22: A19T (designed binder)
# chain: B1 chain with A19T, A104V
# B23: E101P (designed binder)
# chain: B1 chain with E101P, A104V
# B24: A76C (designed binder)
# chain: B1 chain with A76C, A104V
# B25: S51Q (designed binder)
# chain: B1 chain with S51Q, A104V
# B26: F31M (designed binder)
# chain: B1 chain with F31M, A104V
# B27: L7P (designed binder)
# chain: B1 chain with L7P, A104V
# B28: E86I (designed binder)
# chain: B1 chain with E86I, A104V
# B29: S53Q (designed binder)
# chain: B1 chain with S53Q, A104V
# B30: E10T (designed binder)
# chain: B1 chain with E10T, A104V
# B31: E9I (designed binder)
# chain: B1 chain with E9I, A104V
# B32: D59I (designed binder)
# chain: B1 chain with D59I, A104V
# B33: K66F (designed binder)
# chain: B1 chain with K66F, A104V
# B34: E44M (designed binder)
# chain: B1 chain with E44M, A104V
# B35: T2P (designed binder)
# chain: B1 chain with T2P, A104V
# B36: D56F (designed binder)
# chain: B1 chain with D56F, A104V
# B37: A76E (designed binder)
# chain: B1 chain with A76E, A104V
# B38: Y22N (designed binder)
# chain: B1 chain with Y22N, A104V
# B39: E58N (designed binder)
# chain: B1 chain with E58N, A104V
# B40: Y22C (designed binder)
# chain: B1 chain with Y22C, A104V
# B41: F63C (designed binder)
# chain: B1 chain with F63C, A104V
# B42: A11D (designed binder)
# chain: B1 chain with A11D, A104V
# B43: L12H (designed binder)
# chain: B1 chain with L12H, A104V
# B44: L6T (designed binder)
# chain: B1 chain with L6T, A104V
# B45: E46N (designed binder)
# chain: B1 chain with E46N, A104V
# B46: A28D (designed binder)
# chain: B1 chain with A28D, A104V
# B47: A94R (designed binder)
# chain: B1 chain with A94R, A104V
# B48: E16T (designed binder)
# chain: B1 chain with E16T, A104V
# B49: Q34F (designed binder)
# chain: B1 chain with Q34F, A104V
# B50: E25Q (designed binder)
# chain: B1 chain with E25Q, A104V
# B51: F31P (designed binder)
# chain: B1 chain with F31P, A104V
# B52: G54M (designed binder)
# chain: B1 chain with G54M, A104V
# B53: A80R (designed binder)
# chain: B1 chain with A80R, A104V
# B54: A91G (designed binder)
# chain: B1 chain with A91G, A104V
# B55: K66N (designed binder)
# chain: B1 chain with K66N, A104V
# B56: A106T (designed binder)
# chain: B1 chain with A104V, A106T
# B57: R14H (designed binder)
# chain: B1 chain with R14H, A104V
# B58: E29K (designed binder)
# chain: B1 chain with E29K, A104V
# B59: R14G (designed binder)
# chain: B1 chain with R14G, A104V
# Target: T1, TNFR1
# Test: yeast display SC50
row,apparent Kd (screen) [pM],Binder
1,653,B1
2,1050,B2
3,1160,B3
4,718,B4
5,1690,B5
6,8560,B6
7,593,B7
8,593,B8
9,490,B9
10,539,B10
11,490,B11
12,539,B12
13,446,B13
14,12500,B14
15,869,B15
16,718,B16
17,252,B17
18,490,B18
19,539,B19
20,869,B20

row,apparent Kd (screen) [pM],Binder
1,1160,B21
2,718,B22
3,446,B23
4,539,B24
5,1270,B25
6,539,B26
7,790,B27
8,718,B28
9,653,B29
10,5310,B30
11,790,B31
12,653,B32
13,653,B33
14,1690,B34
15,718,B35
16,2730,B36
17,593,B37
18,593,B38
19,490,B39
20,446,B40

row,apparent Kd (screen) [pM],Binder
1,6430,B41
2,593,B42
3,956,B43
4,10400,B44
5,593,B45
6,18300,B46
7,869,B47
8,539,B48
9,790,B49
10,539,B50
11,7780,B51
12,12500,B52
13,593,B53
14,490,B54
15,653,B55
16,1050,B56
17,490,B57
18,490,B58
19,539,B59
